What was measured:
[1] = target: T1, rat RXFP2 (Rattus norvegicus, UniProt F7EMH8); assay: INSL3-stimulated CYP11B1 mRNA expression in H295R stably expressing rat RXFP2; format: cell-based; set-up: expressed in transfected cells; conditions: INSL3 EC80 (3.5 nM), 48 h, qPCR; N = 2
Description: (§1) RXFP2 antagonists were added to H295R-rRXFP2 before addition of INSL3 EC80 (3.5 nM) for 48 h, whereupon the cells and supernatants were collected. CYP11B1 and CYP11B2 mRNA were determined by qPCR and the RXFP2 blocker potencies were calculated (Fig. 5a). Fifteen antibodies have IC50s < 50 nM, and three of the top antibodies (1F2, 4G6, and 2D4) were selected for evaluation in steroid hormone secretion assays by ELISA.
(§2) Data entered as XY table, with x = [Inhibitor] (nM) and y = CYP11B2 or CYP11B1 fold change.

[2] = target: T2, human LDLa-linker (Homo sapiens, UniProt Q8WXD0); assay: Biacore S200 binding to human LDLa-linker protein
T2 construct: human LDLa linker [huRXFP2-LDLa-linker(38-105)-ratFc-8XHIS]; enterokinase cleavage site (C); rat Fc (C, cleaved yes); 8xHis (C, cleaved yes); made in house; host or cells: Expi293
Description: Goat anti Rat Fc gamma fragment specific (Jackson Immunoresearch, 112-005-071) was immobilized at 30 µg/mL to a Series S CM5 chip (Cytiva Life Sciences). In three separate runs, twenty different purified recombinant rat anti RXFP2 antibodies were then captured to the CM5 chip at a concentration of 5 µg/mL. The antibody panel was captured; rat LDLa-linker or human LDLa-linker protein was flowed as analyte at the following concentrations: 20 nM, 10 nM, 5 nM, 2.5 nM, […], and 0 nM. Antibody kinetics were evaluated using a 1:1 fit model (Biacore S200).

[3] = target: T1, rat RXFP2; assay: Cortisol secretion (ELISA) in H295R stably expressing rat RXFP2; format: cell-based; set-up: expressed in transfected cells; conditions: H295R-rRXFP2, 3.5 nM INSL3, 48 h, read-out: IC50 on INSL3-induced cortisol release
Description: as §1
The day after seeding, H295R cells were treated and incubated for 48 h before supernatants and cell lysates were collected. Treatments included INSL3, IgG, 1F2, and 4G6 at 0.035 pM–3.5 µM, 2D4 at 0.01 nM–1 uM, or phosphate buffered saline control. In RXFP2 antagonist assays, 3.5 nM INSL3 was used as the stimulus. Cortisol present in the adrenal cell supernatant at 48 h post treatment was detected by ELISA (R&D KGE008B). Sample dilution was optimized at 1/90 using a standard curve. Aldosterone was below the limit of detection by ELISA (R&D KGE016) and required liquid–liquid extraction (LLE) twice using methyl tetra butyl ether. Post extraction samples were dried (SPE Nitrogen dryer) and reconstituted for ELISA analysis. All samples were run in duplicates.

[4] = target: T1, rat RXFP2; assay: INSL3-stimulated CYP11B2 mRNA expression in H295R stably expressing rat RXFP2; format: cell-based; set-up: expressed in transfected cells; conditions: INSL3 EC80 (3.5 nM), 48 h, qPCR; N = 2
Description: as §1, §2

T1 sequence (F7EMH8 20-737): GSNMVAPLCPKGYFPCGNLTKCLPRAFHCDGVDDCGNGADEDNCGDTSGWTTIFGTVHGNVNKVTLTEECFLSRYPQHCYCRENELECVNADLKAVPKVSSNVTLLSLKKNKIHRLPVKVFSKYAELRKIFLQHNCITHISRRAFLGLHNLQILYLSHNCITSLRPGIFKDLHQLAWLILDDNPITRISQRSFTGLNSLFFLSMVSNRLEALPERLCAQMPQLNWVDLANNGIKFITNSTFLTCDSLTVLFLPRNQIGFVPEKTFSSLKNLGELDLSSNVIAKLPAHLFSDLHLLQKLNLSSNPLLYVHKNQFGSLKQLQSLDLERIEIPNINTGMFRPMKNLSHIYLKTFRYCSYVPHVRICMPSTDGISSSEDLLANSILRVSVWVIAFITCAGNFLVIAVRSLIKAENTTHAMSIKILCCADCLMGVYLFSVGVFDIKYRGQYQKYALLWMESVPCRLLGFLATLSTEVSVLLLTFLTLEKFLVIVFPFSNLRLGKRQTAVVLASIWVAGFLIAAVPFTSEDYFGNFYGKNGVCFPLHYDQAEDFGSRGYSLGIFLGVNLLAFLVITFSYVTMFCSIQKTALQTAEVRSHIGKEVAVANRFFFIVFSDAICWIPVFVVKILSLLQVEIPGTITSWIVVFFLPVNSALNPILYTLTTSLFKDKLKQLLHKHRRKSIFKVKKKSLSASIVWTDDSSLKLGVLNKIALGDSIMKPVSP
T2 sequence (Q8WXD0 38-105): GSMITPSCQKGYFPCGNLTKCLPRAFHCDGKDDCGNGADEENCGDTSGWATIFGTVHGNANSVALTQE

IC50 [1]: 330 pM
cross reactivity to the human LDLa-linker [2]: cross reactivity
IC50 [3]: 260 pM
IC50 [4]: 100 pM
B1: 4G6: Human/rat cross-reactive RXFP2 monoclonal antibody, rat IgG2b backbone; binds the LDLa domain (antibody, V domains shown)
VH: EVQLQQSGPELVKPGASVKLSCKASGYTFTSYVMHWVKQKPEQGLEWIGYKNPSNDGIKYNEKFKGKATLTSDKSSNIAYMELFSLTSEDSAVYYCARSDFGSVWAMDYWGQGTSVTVSS
VL: SIVMTQTPKFLLVSAGDRVTITCKASQSVNDDIVWYQQKPGQSPKLLIYYASNRYTGVPDRFTGSGYGTDFTFTISTVQAGDLAVYFCQQDYSSPFTFGSGTKLEIK

From publication PMC11162469, “Discovery of RXFP2 genetic association in resistant hypertensive men and RXFP2 antagonists for the treatment of resistant hypertension” (Scientific Reports, 2024)
